In patent US20220135690A1 (TWIST BIOSCIENCE, published 2022):

Experiments:
CXCR4 chemokine receptor [1] = target: CXCR4 chemokine receptor (Pan troglodytes (Chimpanzee), UniProt P61072 1-352); assay: cell-based or functional assay
CXCR4 chemokine receptor [2] = target: T1, CXCR4 chemokine receptor (UniProt P61072 1-352); assay: HTRF ligand competition
T1 chain: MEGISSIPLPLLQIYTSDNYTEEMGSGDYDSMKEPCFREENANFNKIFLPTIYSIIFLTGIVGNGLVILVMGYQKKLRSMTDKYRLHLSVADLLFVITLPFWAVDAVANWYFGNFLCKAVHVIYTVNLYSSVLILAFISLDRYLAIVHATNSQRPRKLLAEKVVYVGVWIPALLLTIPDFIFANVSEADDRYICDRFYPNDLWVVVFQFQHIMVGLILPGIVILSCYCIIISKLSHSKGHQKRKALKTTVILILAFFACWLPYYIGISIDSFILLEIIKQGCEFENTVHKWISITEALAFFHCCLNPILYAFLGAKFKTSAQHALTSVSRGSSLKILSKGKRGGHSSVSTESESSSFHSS

IC50 in cAMP assay (CXCR4 chemokine receptor [1]): 900 pM
IC50 (CXCR4 chemokine receptor [2]): 687 pM
B1: CXCR4-81-6 (antibody, V domains shown)
VH: EVQLVESGGGLVQAGGSLRLSCAASGRTFSSYAMGWFRQAPGKEREFVAAISWSGGSTYYADSVKGRFTISADNAKNTVYLQMNSLKPEDTAVYYCAAARGYWRWRLGRRYDYWGQGTQVTVSS
VL: DIQMTQSPSSLSASVGDRVTITCRASQSVTTYLNWYQQKPGKAPKLLIYGSSNLQSGVPSRFSGSGSGTDFTLTISSLQPEDFATYYCQQGYSTPWTFGGGTKVEIKR
